This data set concerns the molecule itself. Put plainly: homodimerization; UV cross-linking, yeast extract.

B1: BPV1 E2 mutant 360S, full-length form (other)
chain: METACERLHVAQETQMQLIEKSSDKLQDHILYWTAVRTENTLLYAARKKGVTVLGHCRVPHSVVCQERAKQAIEMQLSLQELSKTEFGDEPWSLLDTSWDRYMSEPKRCFKKGARVVEVEFDGNASNTNWYTVYSNLYMRTEDGWQLAKAGADGTGLYYCTMAGAGRIYYSRFGDEAARFSTTGHYSVRDQDRVYAGVSSTSSDFRDRPDGVWVASEGPEGDPAGKEAEPAQPVSSLLGSPACGPIRAGLGWVRDGPRSHPYNFPAGSGGSILRSSSTPVQGTVPVDLASRQEEEEQSPDSTEEEPVTLPRRTTNDGFHLLKAGGSCFALISGTANQVKCYRFRVKKNHRHRYENCTTTSFTVADNGAERQGQAQILITFGSPSQRQDFLKHVPLPPGMNISGFTASLDF
Turning to B1, the binding result is “no binding”.

Values taken from patent US5616559, “Papillomavirus E2 trans-activation repressors” (Biogen, Inc., dated 1997).
